Reference: article PMC4562626

Test: TIRF total EGFP fluorescence in adhered membrane
Conditions: glycan lost; control: wild type Kv1.1-EGFP

B1: Kv1.1: N207Q (protein)
parent chain: MTVMSGENADEASAAPGHPQDGSYPRQADHDDHECCERVVINISGLRFETQLKTLAQFPNTLLGNPKKRMRYFDPLRNEYFFDRNRPSFDAILYYYQSGGRLRRPVNVPLDMFSEEIKFYELGEEAMEKFREDEGFIKEEERPLPEKEYQRQVWLLFEYPESSGPARVIAIVSVMVILISIVIFCLETLPELKDDKDFTGTIHRIDNTTVIYTSNIFTDPFFIVETLCIIWFSFELVVRFFACPSKTDFFKNIMNFIDIVAIIPYFITLGTEIAEQEGNQKGEQATSLAILRVIRLVRVFRIFKLSRHSKGLQILGQTLKASMRELGLLIFFLFIGVILFSSAVYFAEAEEAESHFSSIPDAFWWAVVSMTTVGYGDMYPVTIGGKIVGSLCAIAGVLTIALPVPVIVSNFNYFYHRETEGEEQAQLLHVSSPNLASDSDLSRRSSSTISKSEYMEIEEDMNNSIAHYRQANIRTGNCTATDQNCVNKSKLLTDV
  expression_or_secretion: no change
